Measurements reported in patent US20250034271A1.

Target: Histidine-tagged human CD40 protein (hCD40-His) (human) (UniProt P25942)
Assay: SPR, Biacore T200; antibody on Protein A chip, hCD40-His injected; 1:1 fit

Chain of Histidine-tagged human CD40 protein (hCD40-His) (human) (P25942 21-193 limits assumed): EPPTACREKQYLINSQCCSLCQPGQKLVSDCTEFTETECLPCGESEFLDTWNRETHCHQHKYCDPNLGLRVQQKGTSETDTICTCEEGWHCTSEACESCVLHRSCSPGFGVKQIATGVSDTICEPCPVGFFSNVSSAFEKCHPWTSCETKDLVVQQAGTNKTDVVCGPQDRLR

Kd: 0.02 µM
koff: 0.00833 s⁻¹
kon: 417000 M⁻¹ s⁻¹
B1: Dacetuzumab (antibody, part only; not given: constant regions, V domains shown, not shown: another chain or arm of the molecule)
VH: EVQLVESGGGLVQPGGSLRLSCAASGYSFTGYYIHWVRQAPGKGLEWVARVIPNAGGTSYNQKFKGRFTLSVDNSKNTAYLQMNSLRAEDTAVYYCAREGIYWWGQGTLVTVSS
VL: DIQMTQSPSSLSASVGDRVTITCRSSQSLVHSNGNTFLHWYQQKPGKAPKLLIYTVSNRFSGVPSRFSGSGSGTDFTLTISSLQPEDFATYFCSQTTHVPWTFGQGTKVEIK
